B1: CREBH-N: nuclear/cleaved form of CREBH (amino acids 1-320) expressed from a vector (protein, UniProt Q68CJ9 1-320, looked up, fragment)
chain: MNTDLAAGKMASAACSMDPIDSFELLDLLFDRQDGILRHVELGEGWGHVKDQQVLPNPDSDDFLSSILGSGDSLPSSPLWSPEGSDSGISEDLPSDPQDTPPRSGPATSPAGCHPAQPGKGPCLSYHPGNSCSTTTPGPVIQVPEASVTIDLEMWSPGGRICAEKPADPVDLSPRCNLTVKDLLLSGSSGDLQQHHLGASYLLRPGAGHCQELVLTEDEKKLLAKEGITLPTQLPLTKYEERVLKKIRRKIRNKQSAQESRKKKKEYIDGLETRMSACTAQNQELQRKVLHLEKQNLSLLEQLKKLQAIVVQSTSKSAQT
B2: CREBH-DN: dominant negative truncated CREBH, only the bZIP domain (amino acids 209-320), expressed from plasmid pFlag-CREBH-DN (protein, UniProt Q68CJ9 209-320, looked up, fragment)
chain: HCQELVLTEDEKKLLAKEGITLPTQLPLTKYEERVLKKIRRKIRNKQSAQESRKKKKEYIDGLETRMSACTAQNQELQRKVLHLEKQNLSLLEQLKKLQAIVVQSTSKSAQT
modifications: bZIP domain Flag tag
notes: dominant negative truncated CREBH, only the bZIP domain (amino acids 209-320), expressed from plasmid pFlag-CREBH-DN
B3: CREBH-F: flag-tagged full-length CREBH (amino acids 1-455) expressed from a transfected vector (protein, UniProt Q68CJ9 1-461, looked up)
chain: MNTDLAAGKMASAACSMDPIDSFELLDLLFDRQDGILRHVELGEGWGHVKDQQVLPNPDSDDFLSSILGSGDSLPSSPLWSPEGSDSGISEDLPSDPQDTPPRSGPATSPAGCHPAQPGKGPCLSYHPGNSCSTTTPGPVIQVPEASVTIDLEMWSPGGRICAEKPADPVDLSPRCNLTVKDLLLSGSSGDLQQHHLGASYLLRPGAGHCQELVLTEDEKKLLAKEGITLPTQLPLTKYEERVLKKIRRKIRNKQSAQESRKKKKEYIDGLETRMSACTAQNQELQRKVLHLEKQNLSLLEQLKKLQAIVVQSTSKSAQTGTCVAVLLLSFALIILPSISPFGPNKTESPGDFAPVRVFSRTLHNDAASRVAADAVPGSEAPGPRPEADTTREESPGSPGADWGFQDTANLTNSTEELDNATLVLRNATEGLGQVALLDWVAPGPSTGSGRAGLEAAGDEL
modifications: full-length Flag tag
notes: flag-tagged full-length CREBH (amino acids 1-455) expressed from a transfected vector

Key:
human CRP promoter = test: Human CRP promoter luciferase reporter in H2.35 cells; type: cell-based
Experimental: (§1) FIG. 10 depicts activation of expression of APR genes in vivo. (A) The nuclear form of CREBH or ATF6 activates expression of the endogenous SAP mRNA in mice. Northern blot analysis of the endogenous SAP mRNA in mice injected with vector expressing the nuclear form of ATF6 (ATF6 p50) or CREBH (CREBH-N). Wild-type C57BL/6J mice at 3 months of age were injected with 80 μg plasmid DNA expressing ATF6 p50, CREBH-N or empty vector DNA through hydrodynamic plasmid DNA tail-vein injection (Miao et al. 2004). Liver samples were collected from mice at 36 hours after injection, and were subjected to Northern blot analysis to detect the murine SAP mRNA levels. Experiments were performed at least 3 times and representative data is shown. (B-C) Nuclear forms of CREBH and ATF6 act synergistically to induce transcription from the human CRP promoter and the UPRE motif. To detect synergistic effects of CREBH and ATF6 on expression of the reporter, vector DNA (15 ng control vector, 10 ng CREBH- and/or 15 ng AFT6-expression vector) was mixed with 100 ng reporter construct and 150 ng pcDNA3-lacZ for transfection of H2.35 cells in one well of a 6-well plate. The amount of luciferase activity was normalized to the amount of β-galactosidase activity.
FIG. 11 depicts the synergistic interaction of CREBH with ATF6 to activate transcription of the major APR genes. (A) Luciferase reporter analysis of trans-activation effects of CREBH on promoters of the murine SAP gene and the human CRP gene in H2.35 cells. H2.35 cells in a 35 mm collagen-coated plate were co-transfected with a control vector or a CREBH expression vector (0.25 μg), the luciferase reporter (0.6 μg) and pcDNA3-LacZ (0.25 μg), and were then cultured in the absence or presence of Tm (5 μg/ml) for 10 hours. (B) CREBH-DN efficiently suppresses CREBH trans-activation on the murine SAP and the human CRP promoters. H2.35 cells were co-transfected with the luciferase reporter construct and a control vector or a vector expressing CREBH-DN, and were then cultured in the absence or presence of Tm (5 μg/ml) for 10 hours. (C) Interaction between ATF6 and CREBH was determined by IP-Western blot analysis. 293T cells were transfected with a control vector or a vector expressing the nuclear/cleaved form of CREBH, and were then cultured in the absence or presence of Tm for 8 hours. Total cell lysates were immunoprecipated by using an anti-human ATF6 polyclonal antibody or an anti-flag antibody and were then subjected to Western blot analysis by using anti-flag antibody or anti-human ATF6 antibody. Expression levels of CREBH in the transfected cells were determined by Western blot analysis of total cell lysates using the anti-flag antibody (lower panel). (D) Luciferase reporter analysis showing trans-activation effects of the nuclear forms of ATF6 or CREBH on the murine SAP and human CRP promoters in H2.35 cells. H2.35 cells in a 35 mm collagen-coated plate were co-transfected with a vector expressing ATF6 p50 or CREBH-N (0.25 μg), the luciferase reporter (0.6 μg) and pcDNA3-LacZ (0.25 μg). (E-F) Luciferase reporter analysis showing synergistic effects of CREBH and ATF6 on transcriptional induction from the murine SAP promoter (E), and the human CRP promoter (F) in H2.35 cells. […]

murine SAP mRNA = test: Endogenous SAP mRNA in liver after hydrodynamic plasmid DNA tail-vein injection (Northern blot); type: in vivo, mouse; conditions: wild-type mice; 80 μg plasmid DNA tail vein injection; 36 hours
Experimental: as §1

murine SAP promoter = test: Murine SAP promoter luciferase reporter in H2.35 cells; type: cell-based
Experimental: FIG. 11 depicts the synergistic interaction of CREBH with ATF6 to activate transcription of the major APR genes. (A) Luciferase reporter analysis of trans-activation effects of CREBH on promoters of the murine SAP gene and the human CRP gene in H2.35 cells. H2.35 cells in a 35 mm collagen-coated plate were co-transfected with a control vector or a CREBH expression vector (0.25 μg), the luciferase reporter (0.6 μg) and pcDNA3-LacZ (0.25 μg), and were then cultured in the absence or presence of Tm (5 μg/ml) for 10 hours. (B) CREBH-DN efficiently suppresses CREBH trans-activation on the murine SAP and the human CRP promoters. H2.35 cells were co-transfected with the luciferase reporter construct and a control vector or a vector expressing CREBH-DN, and were then cultured in the absence or presence of Tm (5 μg/ml) for 10 hours. (C) Interaction between ATF6 and CREBH was determined by IP-Western blot analysis. 293T cells were transfected with a control vector or a vector expressing the nuclear/cleaved form of CREBH, and were then cultured in the absence or presence of Tm for 8 hours. Total cell lysates were immunoprecipated by using an anti-human ATF6 polyclonal antibody or an anti-flag antibody and were then subjected to Western blot analysis by using anti-flag antibody or anti-human ATF6 antibody. Expression levels of CREBH in the transfected cells were determined by Western blot analysis of total cell lysates using the anti-flag antibody (lower panel). (D) Luciferase reporter analysis showing trans-activation effects of the nuclear forms of ATF6 or CREBH on the murine SAP and human CRP promoters in H2.35 cells. H2.35 cells in a 35 mm collagen-coated plate were co-transfected with a vector expressing ATF6 p50 or CREBH-N (0.25 μg), the luciferase reporter (0.6 μg) and pcDNA3-LacZ (0.25 μg). (E-F) Luciferase reporter analysis showing synergistic effects of CREBH and ATF6 on transcriptional induction from the murine SAP promoter (E), and the human CRP promoter (F) in H2.35 cells. To detect synergistic effects of CREBH and ATF6 on reporter gene expression, vector DNA (25 ng control vector, 20 ng CREBH- and/or 25 ng ATF6-expression vector) was mixed with 100 ng reporter construct and 150 ng pcDNA3-lacZ for transfection of H2.35 cells in a 35 mm collagen-coated plate.
Plasmids, pME18S, pME-CREBH Full and pME-CRE1H d™ were kindly provided by Dr. Sumio Sugano (Institute of Medical Science, University of Tokyo, Japan) (Omori et al., 2001). Plasmid pFlag-CREBH Full that expresses a full-length CREBH (amino acids 1-455) was constructed by insertion of a PCR product from pME-CREBH Full into expression vector pFlag-CMV-4 between EcoR I and BamH I. Vector pFlag-CMV-4 is designed for stable, cytoplasmic expression of N-terminal flag fusion proteins in mammalian cells (purchased from Sigma-Aldrich). Plasmid pFlag-CREBH-ΔC that expresses the nuclear form of CREBH (amino acids 1-320) was constructed by insertion of a PCR product from pME-CREBH d™ into pFlag-CMV-4 between EcoR I and BamH I. Plasmid pFlag-CREBH-DN that expresses only the CREBH bZIP domain (amino acids 209-320) was constructed by insertion of a PCR product from pME-CREBH Full into pFlag-CMV-4 between EcoR I and BamH I. The reporter plasmid containing the luciferase gene under control of the human CRP gene, pGL3-CRP, was constructed by insertion of a 637 bp fragment containing 5′-flanking and promoter region of the human CRP gene into luciferase reporter vector pGL3-basic (purchased from Promega, Madison, Wis.) between Sac I and Xho I. The 637 bp 5′-flanking fragment of the human CRP gene was amplified from human genomic DNA by using a forward primer: 5′-[…]-3′; and a reverse primer 5′-[…]-3′. The reporter plasmid containing the luciferase gene under control of the mouse SAP gene, pGL3-SAP, was constructed by insertion of an 863 bp fragment containing 5′-flanking and promoter region of the mouse SAP gene into pGL3-basic between Xho I and Hind III. […]

UPRE motif [1] = test: UPRE luciferase reporter analysis in COS7 cells; type: cell-based; conditions: for activation of luciferase expression from UPRE reporter relative to vector control: absence of Tm
UPRE motif [2] = test: UPRE luciferase reporter in H2.35 cells; type: cell-based
Experimental: as §1, with “The amount of luciferase activity was normalized to the amount of β-galactosidase activity.” left out
At 36 h post transfection, transfected cells were lysed and assayed for luciferase and β-galactosidase activity by using a Tropix Luciferase/β-Galactosidase Dual Light. […] Photons were detected in an Optima II Luminator (MGM Instruments). […]

[3] = H2.35 cells, Tm 5 μg/ml 10 hours, endogenous CREBH
[4] = co-expression with ATF6 p50, absence or presence of ER stress
[5] = co-expression with full-length or cleaved CREBH, absence or presence of ER stress

| Molecule | expression of luciferase from the CRP reporter compared to the controls (human CRP promoter; H2.35 cells) [fold] | murine SAP mRNA in the liver compared to control vector (murine SAP mRNA) | expression of luciferase from the SAP reporter relative to vector control (murine SAP promoter; H2.35 cells, without Tm) | activation of luciferase expression from UPRE reporter relative to vector control (UPRE motif [1]) | luciferase expression from the human CRP promoter in response to ER stress (human CRP promoter; [3]) | ATF6-mediated trans-activation on the CRP reporter (human CRP promoter; [4]) | CREBH-induced reporter gene expression, CRP reporter (human CRP promoter; [5]) | ATF6-mediated trans-activation on the UPRE reporter (UPRE motif [2]; co-expression with ATF6 p50) | CREBH-induced reporter gene expression, UPRE reporter (UPRE motif [2]; co-expression with cleaved CREBH) | luciferase expression from the murine SAP promoter in response to ER stress (murine SAP promoter; [3]) | ATF6-mediated trans-activation on the SAP reporter (murine SAP promoter; [4]) | CREBH-induced reporter gene expression, SAP reporter (murine SAP promoter; [5]) | expression of luciferase under control of the human CRP promoter (human CRP promoter; H2.35 cells, expression of CREBH) | expression of luciferase from the SAP reporter relative to vector control (murine SAP promoter; H2.35 cells, Tm 5 μg/ml 10 hours) | activation of luciferase expression from UPRE reporter (UPRE motif [1]; after Tm treatment, 10 hours) |
| --- | --- | --- | --- | --- | --- | --- | --- | --- | --- | --- | --- | --- | --- | --- | --- |
| B1 | ~11 | higher levels of the murine SAP mRNA | approximately 16 fold | approximately 18 fold |  |  |  |  |  |  |  |  |  |  |  |
| B2 |  |  |  |  | efficiently suppressed luciferase expression | efficiently suppressed ATF6-mediated trans-activation | significantly suppressed the ability for CREBH to induce reporter gene expression | efficiently suppressed ATF6-mediated trans-activation | significantly suppressed the ability for CREBH to induce reporter gene expression | efficiently suppressed luciferase expression | efficiently suppressed ATF6-mediated trans-activation | significantly suppressed the ability for CREBH to induce reporter gene expression |  |  |  |
| B3 |  |  | approximately 2.5 fold | approximately 2 fold |  |  |  |  |  |  |  |  | significantly activated | approximately 14 fold | more than 10 fold |
